Test results published in the supplement of paper PMC10471632, “Protein engineering and iterative multimodule optimization for vitamin B6 production in Escherichia coli” (Nature Communications, 2023).
± gives the standard deviation of the averaged measurements.

B1: library; numbered along this chain (parent)
chain: MAELLLGVNIDHIATLRNARGTAYPDPVQAAFIAEQAGADGITVHLREDRRHITDRDVRILRQTLDTRMNLEMAVTEEMLAIAVETKPHFCCLVPEKRQEVTTEGGLDVAGQRDKMRDACKRLADAGIQVSLFIDADEEQIKAAAEVGAPFIEIHTGCYADAKTDAEQAQELARIAKAATFAASLGLKVNAGHGLTYHNVKAIAAIPEMHELNIGHAIIGRAVMTGLKDAVAEMKRLMLEARG

Variants of: B1
Experiment: pyridoxine titer in culture supernatant of strain expressing the PdxJ variant; higher = more PN produced (higher in vivo pathway activity of the PdxJ variant)
Conditions: host strain: E. coli LL006; 48 h; temperature: 37 °C; FM1.4
Procedure: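 Rosetta-designed single to quadruple mutants of E. coli PdxJ (PNP synthase) were expressed from pRSFDuet-1 in the engineered chassis E. coli LL006 (MG1655 ΔpdxH::pdxST, pta::Eme_pdxP). Strains were grown in 24 deep-well plates in 2 mL FM1.4 glycerol medium at 37 °C and 800 rpm for 48 h. Extracellular pyridoxine (PN) titer was quantified by HPLC with fluorescence detection; two biological replicates, with the WT pdxJ strain (LL137, about 0.5 mg/L) as control.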

Going from MAELLLGVNIDHIATLRNARGTTYPDPVQAAFIAEQAGADGITIHLREDRRHITDRDVRILRQTLDTRMNLEMAVTEEMLAIAVETKPHFCCLVPEKRQEVTTTGGLDVAGQRDKMRDACKRLADAGIQVSLFIDADEEQIKAAAEVGAPFIEIHTGCYADAKTDAEQAQELARIAKAATFAASLGLKVNAGHGLTYHNVKAIAAIPEMHEINIGHAIIGRAVMTGLKDAVAEMKRLMLEARG [A23T V44I E104T L212I] to MAELLLGVNIDHIATLRNARGTAIPDPVQAAFIAEQAGADGITVHLREDRRHITDRDVRILRQTLDTRMNLEMAVTEEMLAIAVETKPHFCCLVPEKRQEVTTEGGLDVAGQRDKMRDACKRLADAGIQVSLFIDADEEQIKAAAEVGAPFIEIHTGCYADAKTDAEQAQELARIAKAATFAASLGLKVNAGHGLTYHNVKAIAAIPEMHELNIGHAIIGRAVMTGLKDAVAEMKRLMLEARG [Y24I], the pyridoxine titer falls from 4.95 ± 0.43 mg/L to 0.0833 ± 0.01 mg/L (59-fold).

Going from MAELLLGVNLDHIATLRNARGTAYPDPVQAAFIAEQAGADGITVHLREDRRHITDRDVRILRQTLDTRMNLEMAVTEEMLAIAVETKPHFCCLVPEKRQELTLTGGLDVAGQRDKMRDACKRLADAGIQVSLFIDADEEQIKAAAEVGAPFIEIHTGCYADAKTDAEQAQELARIAKAATFAASLGLKVNAGHGLTYHNVKAIAAIPEMHELNIGHAIIGRAVMTGLKDAVAEMKRLMLEARG [I10L V101L T103L E104T] to MAELLLGVNIDHIATLRNARGTAYPDPVQAAFIAEQAGADGITVHLREDRRHITDRDVRILRQTLDTRMNLEMAVTEEMLAIAVETKPHFCCLVPEKRQIVTTTGGLDVAGQRDKMRDACKRLADAGIQVSLFIDADEEQIKAAAEVGAPFIEIHTGCYADAKTDAEQAQELARIAKAATFAASLGLKVNAGHGLTYHNVKAIAAIPEMHELNIGHAIIGRAVMTGLKDAVAEMKRLMLEARG [E100I E104T], the pyridoxine titer falls from 1.611 ± 0.0023 mg/L to 0.98 ± 0.2 mg/L (1.6-fold).

Going from MAELLLGVNLDHVATLRNARGTAYPDPVQAAFIAEQAGADGITVHLREDRRHITDRDVRILRQTLDTRMNLEMAVTEEMLAIAVETKPHFCCLVPEKRQEVTTEGGLDVAGQRDKMRDACKRLADAGIQVSLFIDADEEQIKAAAEVGAPFIEIHTGCYADAKTDAEQAQELARIAKAATFAASLGLKVNAGHGLTYHNVKAIAAIPEMHEINIGHAIIGRAVMTGLKDAVAEMKRLMLEARG [I10L I13V L212I] to MAELLLGVNIDHIATLRNRRGTTYPDPVQAAFIAEQAGADGITVHLREDRRHITDRDVRILRQTLDTRMNLEMAVTEEMLAIAVETKPHFCCLVPEKRQIVTTEGGLDVAGQRDKMRDACKRLADAGIQVSLFIDADEEQIKAAAEVGAPFIEIHTGCYADAKTDAEQAQELARIAKAATFAASLGLKVNAGHGLTYHNVKAIAAIPEMHELNIGHAIGGRAVMTGLKDAVAEMKRLMLEARG [A19R A23T E100I I219G], the pyridoxine titer falls from 3.48 ± 1.7 mg/L to 0.244 ± 0.041 mg/L (14-fold).

MAELLLGVNICHIATLRNARGTTYPDPVQAAFIAEQAGADGITVHLREDRRHITDRDVRILRQTLDTRMNLEMAVTEEMLAIAVETKPHFCCLVPEKRQEVTTEGGLDVAGQRDKMRDACKRLADAGIQVSLFIDADEEQIKAAAEVGAPFIEIHTGCYADAKTDAEQAQELARIAKAATFAASLGLKVNAGHGLTYHNVKAIAAIPEMHELNIGHALIGRAVMTGLKDAVAEMKRLMLEARG [D11C A23T I218L] and MAELLLGVNIDHIATLRNARGTAYPDPVQAAFIAEQAGADGITVHLREDRRHITDRDVRILRQTLDTRMNLEMAVTEEMLAIAVETKPHFCCLVPEKRQIVTTEGGLDVAGQRDKMRDACKRLADAGIQVSLFIDADEEQIKAAAEVGAPFIEIHTGCYADAKTDAEQAQELARIAKAATFAASLGLKVNAGHGLTYHNVKAIAAIPEMHEINIGHAIIGRAVMTGLKDAVAEMKRLMLEARG [E100I L212I] are within error of each other in pyridoxine titer: 0.39 ± 0.17 mg/L for the first, 0.67 ± 0.47 mg/L for the second.

MAELLLGVNLDHIATLRNARGTAYPDPVQAAFIAEQAGADGITVHLREDRRHITDRDVRILRQTLDTRMNLEMAVTEEMLAIAVETKPHFCCLVPEKRQEVTTTGGLDVAGQRDKMRDACKRLADAGIQVSLFIDADEEQIKAAAEVGAPFIEIHTGCYADAKTDAEQAQELARIAKAATFAASLGLKVNAGHGLTYHNVKAIAAIPEMHELNIGHALMGRAVMTGLKDAVAEMKRLMLEARG [I10L E104T I218L I219M] and MAELLLGVNLDHIATLRNARGVTYPDPVQAAFIAEQAGADGITVHLREDRRHITDRDVRILRQTLDTRMNLEMAVTEEMLAIAVETKPHFCCLVPEKRQEVTTEGGLDVAGQRDKMRDACKRLADAGIQVSLFIDADEEQIKAAAEVGAPFIEIHTGCYADAKTDAEQAQELARIAKAATFAASLGLKVNAGHGLTYHNVKAIAAIPEMHELNIGHAMIGRAVMTGLKDAVAEMKRLMLEARG [I10L T22V A23T I218M] are within error of each other in pyridoxine titer: 0.32 ± 0.054 mg/L for the first, 0.2811 ± 0.0013 mg/L for the second.

First: MAELLLGVNIDHVATLRNARGTAYPDPVQAAFIAEQAGADGITVHLREDRRHITDRDVRILRQTLDTRMNLEMAVTEEMLAIAVETKPHFCCLVPEKRQEVTLTGGLDVAGQRDKMRDACKRLADAGIQVSLFIDADEEQIKAAAEVGAPFIEIHTGCYADAKTDAEQAQELARIAKAATFAASLGLKVNAGHGLCYHNVKAIAAIPEMHELNIGHAIIGRAVMTGLKDAVAEMKRLMLEARG [I13V T103L E104T T196C]
Second: MAELLLGVNIDHIATLRNARGTTYPDPVQAAFIAEQAGADGITVHLREDRRHITDRDVRILRQTLDTRMNLEMAVTEEMLAIAVETKPHFCCLVPEKRQEVTTEGGLDVAGQRDKMRDACKRLADAGIQVSLFIDADEEQIKAAAEVGAPFIEIHTGCYADAKTDAEQAQELARIAKAATFAASLGLKVNAGHCLTYHNVKAIAAIPEMHELNIGHAIGGRAVMTGLKDAVAEMKRLMLEARG [A23T G194C I219G]
The pyridoxine titer of the first is 3.7-fold lower: 0.233 ± 0.009 mg/L for the first, 0.873 ± 0.37 mg/L for the second.
